# Variants at the floor of the assay were thinned out.
# B1: TPR 5TU (parent)
# chain: GGAUCUUCUCGAUCUAACAAAAAAGACAAAUCUGCCACAAAGCUUGAGAGCAUCUUCGGAUGCAGAGGCGGCAGCCUUCGGUGGCGCGAUAGCGCCAACGUUCUCAACUAUGACACGCAAAACGCGUGCUCCGUUGAAUGGAGUUUAUCAUG
# Variants of: B1
# Test: polymerase ribozyme fitness, log enrichment relative to wild type (log ratio); higher = more active; in vitro selection for triplet polymerase activity
# Method in brief: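 For each subunit of a heterodimeric triplet polymerase ribozyme, a mutant library was built by PCR and transcribed, then taken through a single in vitro selection round in triplicate. Selection involved annealing to a biotinylated primer, the partner subunit and triplets, incubation frozen at −7 °C, gel excision of extended constructs, capture on streptavidin beads and RT-PCR. Genotypes were retained after Illumina sequencing of inputs and outputs only with ≥10 input reads and ≥1 read in each output. Fitness is defined as the logarithm of a genotype's enrichment relative to wild-type enrichment, using inverse-variance-weighted averages across replicates, with the logarithm taken to base 2.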
row,Variant,polymerase ribozyme fitness (log ratio)
1,U56A C99A,-1.6
2,A119U U148A,-3.01
3,A66G A89U C95G C116A C123A,≤ -4.2
4,C38U U56A G68A C95A,≤ -4.2
5,A28G G92U C93A,≤ -4.2
6,U78A C105U A115U,≤ -4.2
7,A23G A41C U44C A49C G58C A64C C85U A138G,≤ -4.2
8,U31G G48C U111G G143A,≤ -4.2
9,G11A A29G C38G A147C,≤ -4.2
10,C27G U55A A60G C125U,≤ -4.2
11,G88A A97G U111G,≤ -4.2
12,C38A C75G C96G,≤ -4.2
13,A52G G58C,0.885
14,U7A C54A G58C G92C A107U C116A,≤ -4.2
15,C51U C87A G141U,≤ -4.2
16,C27A U134G U139A,≤ -4.2
17,A19U A39U U56A,-2.83
18,A24U C57U G62A,-0.097
19,U13G C18G C27U A40U A64U,≤ -4.2
20,A22G C95U A119G,0.832
21,A47U A64G C93A,≤ -4.2

row,Variant,polymerase ribozyme fitness (log ratio)
1,A28U G86A,-4.08
2,G126A G140U,-3.43
3,A52G U82A C96G,0.187
4,C5U C57U C87A A91C,≤ -4.2
5,A39C U78A G84U U90C,≤ -4.2
6,C32G C57A G59A G74A C85U A120G U144C,-2.27
7,A49U G74A C79A U90A G94A C123G G133U,≤ -4.2
8,A26G C35U A37U C76A U78A,≤ -4.2
9,U55A A120U,-0.857
10,A3C G34C C43U A91G,≤ -4.2
11,A19U G94A A121U C125G,-0.351
12,G92U G141C U146A,-0.994
13,C10A C14G U53A C57A G84A C99U G126A,≤ -4.2
14,C18U A22G A30G G34U G42U U77A C96A,≤ -4.2
15,C43A U56A G67A G88A G112C C114U,≤ -4.2
16,U13A A21U U55C G62C U82A G100C C105G G112U C131U,≤ -4.2
17,G58A A115C U135C G152U,≤ -4.2
18,A39U,-1.9
19,U9G A89U C95A,≤ -4.2
20,U56A G86C,≤ -4.2
21,A39U A73G,-2.4

row,Variant,polymerase ribozyme fitness (log ratio)
1,C36G C95A C103U U134A A138C,≤ -4.2
2,C38G C85G,-2.66
3,A19U A23U U77C C87U A106U C108G C123G,-4.07
4,C75A,-3.85
5,U13A C54A A91C,≤ -4.2
6,A12U G58C C76U U102G A138C,≤ -4.2
7,A22C A52C,-1.04
8,A30U C85A C95A C125A U148A,≤ -4.2
9,C10U A21G G48A G83C G94U U144A,≤ -4.2
10,C54A G86U C105U,-2.87
11,A20U C93G A121U A142U,≤ -4.2
12,U31G C99G U102G C108A C125U U127G U145G,≤ -4.2
13,C8G A47C G81C G84C G86U,≤ -4.2
14,A49G A91U G124U G141C U148G,≤ -4.2
15,U6G A21U U45C A66U G141A U151A,≤ -4.2
16,A49C U61A G86A A89U A138U,≤ -4.2
17,A21G U56G G80U G88A C105G A120U C149U,≤ -4.2
18,A20U G25C G50C C118U,≤ -4.2
19,C54A A89G,-2.13
20,C8A A17G A98G U144A,≤ -4.2
21,G68A C95U,-3.77

row,Variant,polymerase ribozyme fitness (log ratio)
1,A22U A91G,-3.05
2,A40G C87U A115G,-3.19
3,C63U G141C,-0.69
4,A21G A49C C93G C96U,≤ -4.2
5,C14G A17C A22U U44A G83C C118A U134C,≤ -4.2
6,U139G,-0.159
7,G50U G58A A66U C79U C87U G88C A121C,≤ -4.2
8,A3G C27A G88C A122C A138U,≤ -4.2
9,G136C U145A C149G,≤ -4.2
10,C85A C96G,-2.42
11,A24U U61A C93U U101C,-3.93
12,C27U U101G G136A,-1.57
13,C8G U31C C32G G48A A91U A122C G133A,≤ -4.2
14,C103A G141U,-3.08
15,U33G G58A G86A,-4.02
16,U6A A17C A52U G84U A89C G141A,-3.87
17,C8G C131U U144G,≤ -4.2
18,G100U U151A,≤ -4.2

# From the RNAGym collection of RNA variant scans (doi:10.1073/pnas.2313332121)
